From patent publication US20150104443A1 (CHONG KUN DANG PHARMACEUTICAL, published 2015)
Residue numbers refer to the chain shown, from its start. Values belong to the binder of their own block, whether it stands above or below them.

How the values were obtained:
ErbB2 [1] = target: T1, ErbB2 (UniProt P04626 23-652, limits assumed); test: cell-based or functional assay
ErbB2 [2] = target: T1, ErbB2; test: BIAcore 2000 SPR, ErbB2 amine-coupled to the chip, antibody injected
ErbB2 [3] = target: T1, ErbB2; test: BIAcore 2000 SPR, ratio of KD values

inhibition of NCI-N87 cell proliferation (WST-8, 6 days), IC50 (ErbB2 [1]): 10.3 nM
Kd (ErbB2 [2]): 1.07 nM
koff (ErbB2 [2]): 0.000688 s⁻¹
kon (ErbB2 [2]): 644000 M⁻¹ s⁻¹
B1: humanized antibody A091 (antibody, V domains shown)
VH: EVQLVESGGGLVQPGGSLRLSCAASGFNIKDTYIHWVRQARGKGLEWVARIYPTNGYTRYADSVKGRFTISADTSKNTAYLQMNSLRAEDTAVYYCSRWGGWGFYAFALWGQGTLVTVSS
VL: DIQMTQSPSSLSASVGDRVTITCRASQDVNTAVAWYQQKPGKAPKLLIYTTTWPYSGVPSRFSGSRSGTDFSLTISSLQPEDFATYYCQQYYNTPVTFGQGTKVEIK
notes: Expressed as a whole humanized antibody in CHO-s cells

inhibition of NCI-N87 cell proliferation (WST-8, 6 days), IC50 (ErbB2 [1]): 4.3 nM
Kd (ErbB2 [2]): 0.533 nM
koff (ErbB2 [2]): 0.000278 s⁻¹
kon (ErbB2 [2]): 522000 M⁻¹ s⁻¹
B2: humanized antibody A058 (antibody, V domains shown)
VH: B1 VH with R41P
VL: B1 VL with T50S, T51A, T52S, W53F, P54L, S72T, Y91H, N93Q, V96A, T97S
notes: as for B1

fold increase of affinity against the parent antibody 4D5 (ErbB2 [3]): ~2 fold
Kd (ErbB2 [2]): 0.297 nM
koff (ErbB2 [2]): 0.00012 s⁻¹
kon (ErbB2 [2]): 404000 M⁻¹ s⁻¹
B3: humanized antibody AH16 (antibody, V domains shown)
VH: B1 VH with R41P, G100N, G101A, W102K, A106S, A108V, L109H
VL: not shown
notes: as for B1
